Experimental data from patent US20250313635A1 (Merck Sharp & Dohme, published 2025).

Legend:
[1] = molecular target: T1, recombinant mouse αvβ6 integrin extracellular domains (mouse, UniProt P43406 1-988; Q9Z0T9 1-706, Biotinylated on the Avitag (tag not in the letters); interchain disulfide between the coiled-coils (not in the letters).); assay: AlphaLISA blocking of mouse LAP-6His binding
T1 construct: Soluble heterodimer co-expressed in Expi293 cells; also called mαvβ6
Description: (§1) Briefly, the testing antibody (8 μL) was added as a 4×(of Final testing concentration) solution in the HEPES buffer described previously into a 384w AlphaPlate™ (Perkin Elmer #6005350). Then the integrin and ligand were added sequentially as 8×(4 μL each). Plates were sealed and incubated at room temperature for two hours. Then 4×acceptor bead solution ([…]) was added, and the plates were resealed and incubated at room temperature (RT) for one hour. Finally, 4×([…]) donor beads solution was added in a darkened room and incubated for 45 minutes at room temperature. Plates were read on the Envision (Perkin Elmer) in AlphaScreen™ mode within three hours of donor bead addition.

[2] = molecular target: T2, mouse α5β1 integrin on CHOK1 stable cells (mouse, UniProt P11688 45-1053; P09055 21-798); assay: cell-based ELISA (CELISA), CHOK1 cells expressing the integrin
T2 construct: whole, on cells; Stably expressed on CHOK1 cells; also called mα5β1; CHOK1-mouse α5β1
T2 sequence (P11688 45-1053, chain 1 of 2): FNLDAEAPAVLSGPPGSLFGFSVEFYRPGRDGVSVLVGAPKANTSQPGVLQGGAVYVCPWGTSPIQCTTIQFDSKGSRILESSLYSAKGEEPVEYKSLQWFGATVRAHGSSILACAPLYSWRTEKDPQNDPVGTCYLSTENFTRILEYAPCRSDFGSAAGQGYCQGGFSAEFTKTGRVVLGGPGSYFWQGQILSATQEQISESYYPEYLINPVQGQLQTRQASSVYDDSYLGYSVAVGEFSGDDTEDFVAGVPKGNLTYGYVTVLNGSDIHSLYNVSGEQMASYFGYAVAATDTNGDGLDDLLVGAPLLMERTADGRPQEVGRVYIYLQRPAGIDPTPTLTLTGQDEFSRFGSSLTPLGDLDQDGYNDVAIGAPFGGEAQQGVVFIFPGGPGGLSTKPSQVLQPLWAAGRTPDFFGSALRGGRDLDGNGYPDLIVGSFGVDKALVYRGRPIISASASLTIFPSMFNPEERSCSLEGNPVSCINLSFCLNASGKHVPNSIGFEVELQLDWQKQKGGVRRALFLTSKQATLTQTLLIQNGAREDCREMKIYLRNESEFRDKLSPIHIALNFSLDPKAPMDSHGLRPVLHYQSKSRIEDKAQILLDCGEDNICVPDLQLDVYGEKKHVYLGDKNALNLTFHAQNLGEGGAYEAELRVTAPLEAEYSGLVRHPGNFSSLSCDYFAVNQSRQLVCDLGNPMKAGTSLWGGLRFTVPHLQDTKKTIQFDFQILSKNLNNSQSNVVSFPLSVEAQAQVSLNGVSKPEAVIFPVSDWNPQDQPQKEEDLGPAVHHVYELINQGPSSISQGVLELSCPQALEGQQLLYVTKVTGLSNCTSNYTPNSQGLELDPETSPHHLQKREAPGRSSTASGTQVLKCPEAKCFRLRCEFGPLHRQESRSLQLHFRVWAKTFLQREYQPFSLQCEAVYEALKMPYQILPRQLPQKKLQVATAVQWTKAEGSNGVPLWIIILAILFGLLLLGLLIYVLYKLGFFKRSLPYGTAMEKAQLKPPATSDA
T2 sequence (P09055 21-798, chain 2 of 2): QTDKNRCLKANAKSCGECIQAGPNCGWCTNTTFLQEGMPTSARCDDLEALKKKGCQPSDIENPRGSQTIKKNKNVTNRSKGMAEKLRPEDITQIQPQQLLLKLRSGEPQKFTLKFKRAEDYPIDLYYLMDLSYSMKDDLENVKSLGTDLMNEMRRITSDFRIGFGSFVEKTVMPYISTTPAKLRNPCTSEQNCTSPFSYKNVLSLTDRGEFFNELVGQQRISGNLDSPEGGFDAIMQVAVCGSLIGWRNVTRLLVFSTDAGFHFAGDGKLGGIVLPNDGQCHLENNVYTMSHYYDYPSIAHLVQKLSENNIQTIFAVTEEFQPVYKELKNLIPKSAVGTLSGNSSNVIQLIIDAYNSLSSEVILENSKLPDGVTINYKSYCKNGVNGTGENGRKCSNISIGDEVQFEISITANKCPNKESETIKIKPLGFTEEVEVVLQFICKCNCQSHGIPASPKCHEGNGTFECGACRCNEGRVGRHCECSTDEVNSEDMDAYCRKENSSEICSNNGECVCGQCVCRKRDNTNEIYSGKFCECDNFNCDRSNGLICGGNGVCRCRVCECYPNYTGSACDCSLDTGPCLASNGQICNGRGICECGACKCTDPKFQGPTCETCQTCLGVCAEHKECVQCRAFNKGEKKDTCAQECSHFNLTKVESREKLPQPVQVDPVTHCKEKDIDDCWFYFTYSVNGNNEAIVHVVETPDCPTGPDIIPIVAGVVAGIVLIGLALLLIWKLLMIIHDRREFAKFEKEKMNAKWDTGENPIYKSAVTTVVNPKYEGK
Description: (§2) Integrin cell-based ELISA (CELISA) assay. Cell binding EC₅₀ data for antibodies were obtained for CHOK1 parental cells and CHOK1 cells expressing human or mouse αvβ1, αvβ6, and αvβ1 integrins by cell-based ELISA. Three days prior to the assay cells were seeded at 10,000 cells per well in 100 μL/well of media in Falcon 96-well Flat-Bottom Tissue Culture Plates (REF 353916), resulting in an even cell monolayer in each well on the day of the assay. On the day of the assay, media was removed from the cells and a fivefold titration of primary antibodies was added at concentrations ranging from 0 to 200 nM in TBSF+MnCl₂ buffer (25 mM Tris, 0.15 M NaCl, 0.1% BSA, 0.5 mM MnCl₂, pH 7.5). Cells incubated with primary antibody solution for 1 hour at room temperature. […] After 30 minutes of incubation at room temperature, secondary antibody was removed, and cells were washed twice with 150 μL/well of 1×DPBS+Tween 20. Then 50 μL/well of TMB substrate (1-Step Ultra TMB-ELISA, Thermo Scientific, #34028) was added, incubated with cells at room temperature, and 50 μL/well of TMB stop solution (Seracare, #KPL 50-85-05) was then added after five minutes. Absorbance was read on a TECAN plate reader at 450 nm, with a 620 nm reference wavelength.

[3] = molecular target: T3, mouse αvβ1 integrin on CHOK1 stable cells (mouse, UniProt P43406 31-1044; P09055 21-798); assay: as above
T3 construct: whole, on cells; Stably expressed on CHOK1 cells; the adhesion assay used the line with the hamster α5 gene knocked out (CHOK1-α5KO-mαvβ1); also called mαvβ1; CHOK1-mouse αvβ1
T3 sequence (P43406 31-1044, chain 1 of 2): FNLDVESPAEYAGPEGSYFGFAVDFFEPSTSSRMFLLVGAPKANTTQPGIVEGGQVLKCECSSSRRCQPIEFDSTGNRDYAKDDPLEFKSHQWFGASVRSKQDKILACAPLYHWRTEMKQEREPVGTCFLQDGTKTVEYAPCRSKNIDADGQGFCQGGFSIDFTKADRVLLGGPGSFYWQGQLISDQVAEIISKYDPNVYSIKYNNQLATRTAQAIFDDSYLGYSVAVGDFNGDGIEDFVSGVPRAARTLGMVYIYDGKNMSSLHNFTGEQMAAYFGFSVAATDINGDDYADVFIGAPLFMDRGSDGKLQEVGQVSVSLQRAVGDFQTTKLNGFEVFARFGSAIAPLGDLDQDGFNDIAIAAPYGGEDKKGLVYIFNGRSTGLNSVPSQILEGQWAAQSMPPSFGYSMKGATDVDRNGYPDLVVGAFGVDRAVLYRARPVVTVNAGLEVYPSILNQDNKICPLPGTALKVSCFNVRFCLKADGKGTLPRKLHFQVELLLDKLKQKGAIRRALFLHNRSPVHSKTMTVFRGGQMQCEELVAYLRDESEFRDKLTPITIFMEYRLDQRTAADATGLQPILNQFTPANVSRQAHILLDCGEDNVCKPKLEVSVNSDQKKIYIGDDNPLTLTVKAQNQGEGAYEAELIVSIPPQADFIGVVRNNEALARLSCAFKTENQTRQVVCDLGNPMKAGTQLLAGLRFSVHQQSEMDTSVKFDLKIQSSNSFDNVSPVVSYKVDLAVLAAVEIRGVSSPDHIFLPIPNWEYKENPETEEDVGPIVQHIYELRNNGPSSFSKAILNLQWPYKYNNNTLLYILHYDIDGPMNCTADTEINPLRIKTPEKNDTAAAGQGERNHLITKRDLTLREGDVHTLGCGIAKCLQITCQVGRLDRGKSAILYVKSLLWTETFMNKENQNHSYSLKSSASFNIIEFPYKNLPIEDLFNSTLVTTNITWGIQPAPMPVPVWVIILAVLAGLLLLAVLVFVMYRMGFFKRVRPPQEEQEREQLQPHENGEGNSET
T3 sequence (P09055 21-798, chain 2 of 2): as the sequence (P09055 21-798, chain 2 of 2) above
Description: as §2

[4] = molecular target: T4, human αvβ1 integrin on CHOK1 stable cells (human, UniProt P06756 31-1048; P05556 21-798); assay: as above
T4 construct: whole, on cells; Stably expressed on CHOK1 cells; also called hαvβ1; CHOK1-human αvβ1
Description: as §2

[5] = molecular target: T5, mouse αvβ6 integrin on CHOK1 stable cells (mouse, UniProt P43406 31-1044; Q9Z0T9 22-787); assay: as above
T5 construct: whole, on cells; Stably expressed on CHOK1 cells; also called mαvβ6; CHOK1-mouse αvβ6
Description: as §2

[6] = molecular target: T6, human α5β1 integrin on CHOK1 stable cells (human, UniProt P08648 42-1049; P05556 21-798); assay: as above
T6 construct: whole, on cells; Stably expressed on CHOK1 cells; also called hα5β1; CHOK1-human α5β1
Description: as §2

[7] = molecular target: T7, recombinant mouse αvβ5 integrin extracellular domains (mouse, UniProt P43406 1-988; O70309 1-719, Biotinylated on the Avitag (tag not in the letters); interchain disulfide between the coiled-coils (not in the letters).); assay: AlphaLISA blocking of mouse vitronectin binding
T7 construct: Soluble heterodimer co-expressed in Expi293 cells; also called mαvβ5
Description: as §1

[8] = molecular target: T8, recombinant mouse αvβ1 integrin extracellular domains (mouse, UniProt P43406 1-988; P09055 1-728, Biotinylated on the Avitag (tag not in the letters); interchain disulfide between the coiled-coils (not in the letters).); assay: ForteBio Octet Red (BLI); upper end tied to Ab-31 and mαvβ1 by Table 13
T8 construct: Soluble heterodimer co-expressed in Expi293 cells; also called mαvβ1

[9] = molecular target: human αvβ6 integrin on CHOK1 stable cells (human, UniProt P06756 31-1048; P18564 22-788); assay: cell-based or functional assay
[10] = molecular target: T3, mouse αvβ1 integrin on CHOK1 stable …; assay: cell-based or functional assay
[11] = molecular target: T4, human αvβ1 integrin on CHOK1 stable …; assay: cell-based or functional assay
[12] = molecular target: T5, mouse αvβ6 integrin on CHOK1 stable …; assay: cell-based or functional assay
[13] = molecular target: mouse αvβ5 integrin on CHOK1 stable cells (mouse, UniProt P43406 31-1044; O70309 24-798); assay: cell-based or functional assay
[14] = molecular target: mouse αvβ8 integrin on CHOK1 stable cells (mouse, UniProt P43406 31-1044; Q0VBD0 22-767); assay: cell-based or functional assay
[15] = molecular target: human αvβ8 integrin on CHOK1 stable cells (human, UniProt P06756 31-1048; P26012 43-769); assay: cell-based or functional assay
[16] = molecular target: mouse αvβ3 integrin on CHOK1 stable cells (mouse, UniProt P43406 31-1044; O54890 26-787); assay: cell-based or functional assay
[17] = molecular target: T1, recombinant mouse αvβ6 integrin …; assay: ForteBio Octet Red (BLI); lower end tied to Ab-33 and mαvβ6 by Table 13

T1 sequence (P43406 31-988 limits assumed, form in doubt, chain 1 of 2): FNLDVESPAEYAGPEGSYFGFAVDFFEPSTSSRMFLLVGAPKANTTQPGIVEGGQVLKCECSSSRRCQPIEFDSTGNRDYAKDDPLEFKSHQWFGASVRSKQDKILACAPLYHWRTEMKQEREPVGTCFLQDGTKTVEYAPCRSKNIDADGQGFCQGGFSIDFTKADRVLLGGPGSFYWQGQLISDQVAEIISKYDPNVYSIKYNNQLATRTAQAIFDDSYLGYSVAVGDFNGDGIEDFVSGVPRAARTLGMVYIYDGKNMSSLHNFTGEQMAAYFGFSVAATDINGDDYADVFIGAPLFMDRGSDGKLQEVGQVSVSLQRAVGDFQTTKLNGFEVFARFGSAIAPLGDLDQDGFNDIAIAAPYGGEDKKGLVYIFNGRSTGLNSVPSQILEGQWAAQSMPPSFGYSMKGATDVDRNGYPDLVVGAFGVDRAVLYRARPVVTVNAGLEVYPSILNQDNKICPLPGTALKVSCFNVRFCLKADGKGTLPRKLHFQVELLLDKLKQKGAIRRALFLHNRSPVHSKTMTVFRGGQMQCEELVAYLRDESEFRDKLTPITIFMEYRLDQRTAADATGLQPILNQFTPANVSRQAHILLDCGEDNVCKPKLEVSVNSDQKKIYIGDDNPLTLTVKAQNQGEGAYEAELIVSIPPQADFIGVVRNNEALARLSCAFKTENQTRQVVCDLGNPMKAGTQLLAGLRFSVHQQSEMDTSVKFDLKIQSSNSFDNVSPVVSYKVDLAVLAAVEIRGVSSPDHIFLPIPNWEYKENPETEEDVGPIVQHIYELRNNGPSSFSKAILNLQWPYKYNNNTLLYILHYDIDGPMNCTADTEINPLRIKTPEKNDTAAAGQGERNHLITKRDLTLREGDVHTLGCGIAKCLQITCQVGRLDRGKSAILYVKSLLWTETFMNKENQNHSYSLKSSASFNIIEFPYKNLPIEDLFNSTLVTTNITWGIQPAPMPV
T1 sequence (Q9Z0T9 22-706 limits assumed, form in doubt, chain 2 of 2): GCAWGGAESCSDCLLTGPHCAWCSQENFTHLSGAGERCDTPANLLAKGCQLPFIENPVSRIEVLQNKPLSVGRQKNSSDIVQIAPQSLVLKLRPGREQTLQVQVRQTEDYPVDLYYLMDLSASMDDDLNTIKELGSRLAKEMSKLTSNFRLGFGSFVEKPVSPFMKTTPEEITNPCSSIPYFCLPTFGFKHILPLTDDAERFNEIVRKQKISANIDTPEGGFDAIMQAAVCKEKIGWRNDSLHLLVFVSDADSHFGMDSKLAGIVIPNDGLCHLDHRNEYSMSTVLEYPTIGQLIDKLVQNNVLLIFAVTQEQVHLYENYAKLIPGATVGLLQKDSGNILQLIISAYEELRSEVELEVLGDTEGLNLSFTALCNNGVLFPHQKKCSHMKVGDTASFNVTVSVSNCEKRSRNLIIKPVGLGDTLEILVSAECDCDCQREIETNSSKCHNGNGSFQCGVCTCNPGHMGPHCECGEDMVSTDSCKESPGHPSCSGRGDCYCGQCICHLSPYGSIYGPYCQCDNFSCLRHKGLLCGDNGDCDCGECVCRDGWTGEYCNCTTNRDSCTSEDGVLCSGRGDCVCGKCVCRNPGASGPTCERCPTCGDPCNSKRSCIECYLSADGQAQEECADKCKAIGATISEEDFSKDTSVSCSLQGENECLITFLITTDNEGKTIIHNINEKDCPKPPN

Binder	IC50 [1] [nM]	EC50 [2] [nM]	EC50 [3] [nM]	EC50 [4] [nM]	EC50 [5] [nM]	EC50 [6] [nM]	IC50 [7] [nM]	Kd [8] [nM]	IC50 of latent TGFβ activation (PAI-1 luciferase, TMLC and CHOK1-integrin co-culture) [9] [nM]	IC50 of inhibition of adhesion of CHOK1-α5KO-mαvβ1 cells to fibronectin matrix [10] [nM]	IC50 of latent TGFβ activation (PAI-1 luciferase, TMLC and CHOK1-integrin co-culture) [10] [nM]	IC50 of latent TGFβ activation (PAI-1 luciferase, TMLC and CHOK1-integrin co-culture) [11] [nM]	IC50 of latent TGFβ activation (PAI-1 luciferase, TMLC and CHOK1-integrin co-culture) [12] [nM]	IC50 of inhibition of adhesion of CHOK1-mαvβ5 cells to vitronectin matrix [13] [nM]	IC50 of latent TGFβ activation (PAI-1 luciferase, TMLC and CHOK1-integrin co-culture) [14] [nM]	IC50 of latent TGFβ activation (PAI-1 luciferase, TMLC and CHOK1-integrin co-culture) [15] [nM]	IC50 of inhibition of adhesion of CHOK1-mαvβ3 cells to vitronectin matrix [16] [nM]	Kd [17] [nM]
Ab-31 (antibody, V domains shown) VH: EVQLQESGPGLVKPSETLSLTCAVSGYSISSGYYWGWIRQPPGKGLEWIGSIYHSGNTYYNPSLKSRVTISVDTSKNQFSLKLSSVTAADTAVYYCARVPRYSRGDAYYYYGMDVWGQGTTVTVSS VL: DIQMTQSPSTLSASVGDRVTITCRASQSIGSWLAWYQQKPGKAPKLLIYKASSLESGVPSRFSGSGSGTEFTLTISSLQPDDFATYYCQQSGPYPWTFGGGTKVEIK	17.7	1.76	0.743	0.32	0.64	1.22	–	2 to 48	19.1	1.5	7.5	6.1	3.1	5.6	13.5	3.9	1	–
Ab-30 (antibody, V domains shown) VH: EVQLQESGPGLVKPSETLSLTCAVSGYSISSGYYWGWIRQPPGKGLEWIGSIYHSGNTYYNPSLKSRVTISVDTSKNQFSLKLSSVTAADTAVYYCARVPRYSRGDAYYYYGMDVWGQGTTVTVSS VL: DIQMTQSPSTLSASVGDRVTITCRASQSISSWLAWYQQKPGKAPKLLIYKASSLESGVPSRFSGSGSGTEFTLTISSLQPDDFATYYCQQVKIYPPYTFGGGTKVEIK	23.2	0.03	0.593	0.23	0.335	0.495	–	–	–	–	–	–	–	–	–	–	–	–
Ab-33 (antibody, V domains shown) VH: EVQLVQSGAEVKKPGSSVKVSCKASGGTFSNYAISWVRQAPGQGLEWMGGIIPIFGTANYAQKFQGRVTITADESTSTAYMELSSLRSEDTAVYYCARAPRSARGDMYYYYYGMDVWGQGTTVTVSS VL: DIQMTQSPSTLSASVGDRVTITCRASQSIGSWLAWYQQKPGKAPKLLIYKASSLESGVPSRFSGSGSGTEFTLTISSLQPDDFATYYCQQYGRYPWTFGGGTKVEIK	6.6	–	2.84	0.702	2.84	–	96.3	–	–	–	–	–	–	–	–	–	–	2 to 48

Further binders by falling IC50 [1], results first:

IC50 [1] [nM]	EC50 [2] [nM]	EC50 [3] [nM]	EC50 [4] [nM]	EC50 [5] [nM]	EC50 [6] [nM]	IC50 [7] [nM]	Kd [8] [nM]	IC50 of latent TGFβ activation (PAI-1 luciferase, TMLC and CHOK1-integrin co-culture) [9] [nM]	IC50 of inhibition of adhesion of CHOK1-α5KO-mαvβ1 cells to fibronectin matrix [10] [nM]	IC50 of latent TGFβ activation (PAI-1 luciferase, TMLC and CHOK1-integrin co-culture) [10] [nM]	IC50 of latent TGFβ activation (PAI-1 luciferase, TMLC and CHOK1-integrin co-culture) [11] [nM]	IC50 of latent TGFβ activation (PAI-1 luciferase, TMLC and CHOK1-integrin co-culture) [12] [nM]	IC50 of inhibition of adhesion of CHOK1-mαvβ5 cells to vitronectin matrix [13] [nM]	IC50 of latent TGFβ activation (PAI-1 luciferase, TMLC and CHOK1-integrin co-culture) [14] [nM]	IC50 of latent TGFβ activation (PAI-1 luciferase, TMLC and CHOK1-integrin co-culture) [15] [nM]	IC50 of inhibition of adhesion of CHOK1-mαvβ3 cells to vitronectin matrix [16] [nM]	Kd [17] [nM]	Binder
26.3	0.213	1.09	0.198	0.285	0.166	17.7	–	–	–	–	–	–	–	–	–	–	–	Ab-29 (antibody, V domains shown) VH: ELQLQESGPGLVKPSETLSLTCTVSGGSISSNSYYWGWIRQPPGKGLEWIGSIYYSGSTYYNPSLKSRVTISVDTSKNQFSLKLSSVTAADTAVYYCARVRRVAGRGDSYYYYYGMDVWGQGTTVTVSS VL: DIQMTQSPSSVSASVGDRVTITCRASQGISRWLAWYQQKPGKAPKLLIYAASSLQSGVPSRFSGSGSGTDFTLTISSLQPEDFATYYCQQAISHPWTFGGGTKVEIK
17.1	0.131	0.609	0.335	0.508	0.597	–	–	–	–	–	–	–	–	–	–	–	–	Ab-32 (antibody, V domains shown) VH: EVQLQESGPGLVKPSETLSLTCAVSGYSISSGYYWGWIRQPPGKGLEWIGSIYHSGNTYYNPSLKSRVTISVDTSKNQFSLKLSSVTAADTAVYYCARVPRYSRGDAYYYYGMDVWGQGTTVTVSS VL: EIVLTQSPGTLSLSPGERATLSCRASQSVRSSYLAWYQQKPGQAPRLLIYGASSRATGIPDRFSGSGSGTDFTLTISRLEPEDFAVYYCQQAGLVFTFGGGTKVEIK
